From US20210340238A1, “TGFß1 INHIBITORS AND USE THEREOF” (Scholar Rock, Inc., priority 2018, published 2021)
Numbering of substitutions follows the chain as printed. Several values for one entry are separate records, joined by “and”; a condition that tells them apart may be missing. Equal entries are not always repeated.

Key:
Design in all cases: species or system human
Cell-associated proTGFβ1 [1] = test: Octet binding, cell average of hGARP and hLRRC33 complexes; settings: average KD of (E) and (F), read-out: (G) Cell AVRG
Excerpt: (§1) Column (A) of the table provides monoclonal antibodies with discrete amino acid sequences. […] Columns (B), (C), (E) and (F) provide affinities of each of the listed antibodies, measured in KD, towards the antigen complex as indicated, respectively. […] Average KD values calculated from (B) and (C) are shown in the corresponding column (D), which collectively represents affinities of the antibodies to ECM- or matrix-associated proTGFβ1 complexes. Similarly, Average KD values calculated from (E) and (F) are shown in the corresponding column (G), which collectively represents affinities of the antibodies to cell-surface or cell-associated proTGF complexes. Finally, relative ratios between the average KD values from columns (D) and (G) are expressed as fold bias” in column (H). Thus, the greater the numerical of column (H) is, the greater bias exists for the particular antibody, when comparing binding preferences of the antibody for matrix-associated complexes to cell-surface complexes. This is one way of quantitatively representing and comparing inherent bias of antibodies to their target complexes. Such analyses may be useful in guiding the selection process for a candidate antibody for particular therapeutic use.

[2] = biological target: Matrix-associated proTGFβ1; test: MSD-SET binding, ECM average of hLTBP1 and hLTBP3 complexes; settings: average KD of (B) and (C), read-out: (D) ECM AVRG
Excerpt: (§2) Column (A) of the table provides monoclonal antibodies with discrete amino acid sequences. […] Columns (B), (C), (E) and (F) provide affinities of each of the listed antibodies, measured in KD, towards the antigen complex as indicated, respectively. […] Similarly, Average KD values calculated from (E) and (F) are shown in the corresponding column (G), which collectively represents affinities of the antibodies to cell-surface or cell-associated proTGF complexes. Finally, relative ratios between the average KD values from columns (D) and (G) are expressed as fold bias” in column (H). Thus, the greater the numerical of column (H) is, the greater bias exists for the particular antibody, when comparing binding preferences of the antibody for matrix-associated complexes to cell-surface complexes. This is one way of quantitatively representing and comparing inherent bias of antibodies to their target complexes. Such analyses may be useful in guiding the selection process for a candidate antibody for particular therapeutic use. Select antibodies of the present disclosure, as measured by MSD-SET, show context-bias (i.e., greater than five-fold bias) or unbias (i.e., less than 5-fold bias) toward matrix-associated complexes over cell-associated complexes. […] Without being bound by a particular theory, the differences in the kinetics of the assays and/or differences in the nature of recombinant proteins may account for the noticeable differences seen in Ab19 binding to hGARP complexes observed in the above Octet assay (see Table 6) compared to the below MSD-SET assay (see Table 7 below). For example, the Octet assay measures kinetic on and off rates, while the MSD-SET assay measures binding at equilibrium. In addition, the recombinant antibodies used in the Octet assay were expressed as IgG1 antibodies in yeast, while the antibodies used in the MSD assay were expressed as IgG4 antibodies in mammalian cells.

Cell-associated proTGFβ1 [3] = test: MSD-SET binding, cell average of hGARP and hLRRC33 complexes; settings: average KD of (E) and (F), read-out: (G) Cell AVRG
Excerpt: as §2

[4] = biological target: Matrix-associated proTGFβ1; test: Octet binding, ECM average of hLTBP1 and hLTBP3 complexes; settings: average KD of (B) and (C), read-out: (D) ECM AVRG
Excerpt: as §1

[5] = test system: Matrix-associated proTGFβ1 vs Cell-associated proTGFβ1; test: Octet binding, matrix vs cell bias (G/D); settings: ratio of cell average KD to ECM average KD
Excerpt: as §1

[6] = test system: Matrix-associated proTGFβ1 vs Cell-associated proTGFβ1; test: MSD-SET binding, matrix vs cell bias (G/D); settings: ratio of cell average KD to ECM average KD
Excerpt: as §2

B1: Ab19: monoclonal antibody binding proTGFβ1 complexes; VH SEQ ID NO: 234, VL SEQ ID NO: 15 (antibody, V domains shown)
VH: QVQLVESGGGVVQPGRSLRLSCAASGFTFSSFAMTWVRQAPGKGLEWVSAISGSGAATYFADSVKGRFTISRDNSKNTLYLQMNSLRAEDTAVYYCARVSSGHWDFDEWGQGTLVTVSS
VL: DIQLTQSPSSLSASVGDRVTITCRASQSISSYLNWYQQKPGKAPKLLIYAASNLQSGVPSRFSGSGSGTDFTLTISSLQPEDFATYYCQQTYTVPLTFGGGTKVEIK
Kd (Cell-associated proTGFβ1 [1]): 5.95 nM | Kd [2]: 2.83 nM | Kd (Cell-associated proTGFβ1 [3]): 4.75 nM | Kd [4]: 0.172 nM | (H) G/D (fold bias) [5]: 34.47 fold | (H) G/D (fold bias) [6]: 1.675 fold and 1.68 fold

B2: Ab20: monoclonal antibody binding proTGFβ1 complexes; VH SEQ ID NO: 236, VL SEQ ID NO: 15 (antibody, V domains shown)
VH: EVQLLESGGGLVQPGGSLRLSCAASGFTFSAYAMTWVRQAPGKGLEWVSAISGSGGVTYYADSVKGRFTISRDNSKNTLYLQMNSLRAEDTAVYYCARVSSGHWDYDYWGQGTLVTVSS
VL: B1 VL
Kd (Cell-associated proTGFβ1 [1]): 0.715 nM | Kd [2]: 0.2 nM | Kd [4]: 0.162 nM | (H) G/D (fold bias) [6]: 6.75 fold

B3: Ab11: monoclonal antibody binding proTGFβ1 complexes; VH SEQ ID NO: 216, VL SEQ ID NO: 15 (antibody, V domains shown)
VH: B2 VH with S30R, A31N, T35S, A50S, V57A, Y106F
VL: B1 VL
Kd (Cell-associated proTGFβ1 [1]): 0.699 nM | Kd (Cell-associated proTGFβ1 [3]): 4.65 nM | Kd [4]: 0.161 nM | (H) G/D (fold bias) [6]: 3.87 fold

B4: Ab17: monoclonal antibody binding proTGFβ1 complexes; VH SEQ ID NO: 230, VL SEQ ID NO: 15 (antibody, V domains shown)
VH: B1 VH with Q1E, V5L, R16G, E108Y
VL: B1 VL
Kd (Cell-associated proTGFβ1 [1]): 4.64 nM | Kd [4]: 0.191 nM | (H) G/D (fold bias) [5]: 24.288 fold

B5: Ab13: monoclonal antibody binding proTGFβ1 complexes; VH SEQ ID NO: 222, VL SEQ ID NO: 223 (antibody, V domains shown)
VH: B2 VH with S30A, A31D, G53S, S54F, G55A, G56S, V57A, T58I, Y106F
VL: B1 VL with L4M, N53S, T91V, T93D, V94P
Kd (Cell-associated proTGFβ1 [1]): 5.7 nM | Kd [4]: 0.263 nM | (H) G/D (fold bias) [5]: 21.71 fold

B6: Ab18: monoclonal antibody binding proTGFβ1 complexes; VH SEQ ID NO: 232, VL SEQ ID NO: 15 (antibody, V domains shown)
VH: B1 VH with S31D, F32Y, T35V, R98T, E108Y
VL: B1 VL
Kd (Cell-associated proTGFβ1 [1]): 6.26 nM | Kd [4]: 0.284 nM | (H) G/D (fold bias) [5]: 22.00 fold

B7: Ab12: monoclonal antibody binding proTGFβ1 complexes; VH SEQ ID NO: 212, VL SEQ ID NO: 15 (antibody, V domains shown)
VH: B1 VH with S31D, F32Y, T35V, A56F, A57T, F60Y, E108Y
VL: B1 VL
Kd (Cell-associated proTGFβ1 [1]): 3.89 nM | Kd [2]: 0.72 nM | Kd (Cell-associated proTGFβ1 [3]): 2.45 nM | Kd [4]: 0.17 nM | (H) G/D (fold bias) [5]: 22.897 fold | (H) G/D (fold bias) [6]: 3.40 fold

B8: Ab16: monoclonal antibody binding proTGFβ1 complexes; VH SEQ ID NO: 228, VL SEQ ID NO: 15 (antibody, V domains shown)
VH: B2 VH with A31N, T35S, G56F, V57T, Y106F
VL: B1 VL
Kd (Cell-associated proTGFβ1 [1]): 2.4 nM | Kd [4]: 0.157 nM | (H) G/D (fold bias) [5]: 15.307 fold

B9: Ab15: monoclonal antibody binding proTGFβ1 complexes; VH SEQ ID NO: 226, VL SEQ ID NO: 15 (antibody, V domains shown)
VH: B2 VH with L5V, L11V, G16R, A31D, T35V, G56F, V57T, Y106F
VL: B1 VL
Kd (Cell-associated proTGFβ1 [1]): 3.86 nM | Kd [4]: 0.159 nM | (H) G/D (fold bias) [5]: 24.25 fold

B10: Ab14: monoclonal antibody binding proTGFβ1 complexes; VH SEQ ID NO: 224, VL SEQ ID NO: 223 (antibody, V domains shown)
VH: B2 VH with S54T, V57S, Y106F
VL: B1 VL with L4M, N53S, T91V, T93D, V94P
Kd (Cell-associated proTGFβ1 [1]): 5.92 nM | Kd [4]: 0.341 nM | (H) G/D (fold bias) [5]: 17.36 fold
